Patent US20200317768A1 (published 2020)

T1: soluble mouse FcγRII, His-tagged (mouse, UniProt P08101 30-210, limits assumed)
T1 construct: Captured on the chip by an anti-His antibody
T1 sequence (looked up): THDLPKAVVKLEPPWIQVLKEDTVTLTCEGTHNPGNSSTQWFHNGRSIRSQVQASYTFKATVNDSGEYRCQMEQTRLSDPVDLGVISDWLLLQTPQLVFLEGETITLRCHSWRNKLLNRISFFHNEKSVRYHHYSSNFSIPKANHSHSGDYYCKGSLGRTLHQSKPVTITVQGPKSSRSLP

T2: human FcγRIIb constitutively expressed on MDCK cells (human, UniProt P31994 43-310)
T2 sequence (looked up): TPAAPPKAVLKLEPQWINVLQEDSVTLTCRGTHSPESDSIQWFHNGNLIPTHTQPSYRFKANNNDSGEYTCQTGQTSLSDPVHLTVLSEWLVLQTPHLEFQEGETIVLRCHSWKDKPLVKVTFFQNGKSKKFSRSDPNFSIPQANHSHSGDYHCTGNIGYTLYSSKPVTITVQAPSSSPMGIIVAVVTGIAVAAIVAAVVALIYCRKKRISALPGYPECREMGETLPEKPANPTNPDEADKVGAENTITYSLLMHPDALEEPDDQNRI


Assays:
[1] = target: T1, soluble mouse FcγRII, His-tagged; assay: SPR, mouse FcgRII-His captured, antigen-antibody complex injected, pH7.4, 25C
Experimental: Regarding the produced Fc region variant-containing antibodies, binding assays between soluble mouse FcγRII and antigen-antibody complexes were performed using BIACORE® T200 (GE Healthcare). Soluble mouse FcγRII was produced in the form of a His-tagged molecule by a method known to those skilled in the art. An appropriate amount of an anti-His antibody was fixed onto Sensor chip CM5 (GE Healthcare) by the amine coupling method using a His capture kit (GE Healthcare) to capture mouse FcγRII. Next, an antibody-antigen complex and a running buffer (as a reference solution) were injected, and interaction was allowed to take place with the mouse FcγRII captured onto the sensor chip. 20 mM N-(2-Acetamido)-2-aminoethanesulfonic acid, 150 mM NaCl, 1.2 mM CaCl₂, and 0.05% (w/v) TWEEN, 20 at pH7.4 was used as the running buffer, and the respective buffer was also used to dilute the soluble mouse FcγRII. To regenerate the sensor chip, 10 mM glycine-HCl at pH1.5 was used. All measurements were carried out at 25° C. […] To calculate the parameters, the BIACORE® T100 Evaluation Software (GE Healthcare) was used.

[2] = target: T2, human FcγRIIb constitutively expressed …; assay: cell-based or functional assay

Row | Binder | biacore IC binding [1] | celluar uptake [2]
1 | M103205H795-P1375m/M103202L889-SK1 (antibody, human IgG1, kappa, also called MS1032LO06-P1375m) heavy: not shown light: DIVMTQSPATLSLSPGERATLSCTSSQSVYHANWLSWFQQKPGQPPKLLIYWASTLAYGVPSRFSGSGSGTDFTLTISSLQPEDAATYYCAGGYGGGRYAFGQGTKVEIKRTVAAPSVFIFPPSDEQLKSGTASVVCLLNNFYPREAKVQWKVDNALQSGNSQESVTEQDSKDSTYSLSSTLTLSKADYEKHKVYACEVTHQGLSSPVTKSFNRGEC | 1.21 relative to SG1 (=1.00) | 3.43 relative to SG1 (=1.00)
2 | M103205H795-P1485m/M103202L889-SK1 (antibody, human IgG1, kappa) heavy: not shown light: DIVMTQSPATLSLSPGERATLSCTSSQSVYHANWLSWFQQKPGQPPKLLIYWASTLAYGVPSRFSGSGSGTDFTLTISSLQPEDAATYYCAGGYGGGRYAFGQGTKVEIKRTVAAPSVFIFPPSDEQLKSGTASVVCLLNNFYPREAKVQWKVDNALQSGNSQESVTEQDSKDSTYSLSSTLTLSKADYEKHKVYACEVTHQGLSSPVTKSFNRGEC | 1.29 relative to SG1 (=1.00) | 1.88 relative to SG1 (=1.00)
3 | M103205H795-P1486m/M103202L889-SK1 (antibody, human IgG1, kappa) heavy: not shown light: DIVMTQSPATLSLSPGERATLSCTSSQSVYHANWLSWFQQKPGQPPKLLIYWASTLAYGVPSRFSGSGSGTDFTLTISSLQPEDAATYYCAGGYGGGRYAFGQGTKVEIKRTVAAPSVFIFPPSDEQLKSGTASVVCLLNNFYPREAKVQWKVDNALQSGNSQESVTEQDSKDSTYSLSSTLTLSKADYEKHKVYACEVTHQGLSSPVTKSFNRGEC | 1.2 relative to SG1 (=1.00) | 1.52 relative to SG1 (=1.00)
4 | M103205H795-P1484m/M103202L889-SK1 (antibody, human IgG1, kappa) heavy: not shown light: DIVMTQSPATLSLSPGERATLSCTSSQSVYHANWLSWFQQKPGQPPKLLIYWASTLAYGVPSRFSGSGSGTDFTLTISSLQPEDAATYYCAGGYGGGRYAFGQGTKVEIKRTVAAPSVFIFPPSDEQLKSGTASVVCLLNNFYPREAKVQWKVDNALQSGNSQESVTEQDSKDSTYSLSSTLTLSKADYEKHKVYACEVTHQGLSSPVTKSFNRGEC | 1.33 relative to SG1 (=1.00) | 0 relative to SG1 (=1.00)
5 | M103205H795-P1378m/M103202L889-SK1 (antibody, human IgG1, kappa, also called MS1032LO06-P1378m) heavy: not shown light: DIVMTQSPATLSLSPGERATLSCTSSQSVYHANWLSWFQQKPGQPPKLLIYWASTLAYGVPSRFSGSGSGTDFTLTISSLQPEDAATYYCAGGYGGGRYAFGQGTKVEIKRTVAAPSVFIFPPSDEQLKSGTASVVCLLNNFYPREAKVQWKVDNALQSGNSQESVTEQDSKDSTYSLSSTLTLSKADYEKHKVYACEVTHQGLSSPVTKSFNRGEC | 1.23 relative to SG1 (=1.00) | 3.86 relative to SG1 (=1.00)
6 | M103205H795-P1383m/M103202L889-SK1 (antibody, human IgG1, kappa, also called MS1032LO06-P1383m) heavy: QVTLKESGPVLVKPTETLTLTCTVSGIDLSHDDISWVRQAPGKGLEWVGIISYAGSTYYASWAKGRLTISKDTSKNQVVLTMTNMDPVDTATYYCARGVPAYSHGGDLWGQGTLVTVSSASTKGPSVFPLAPSSKSTSGGTAALGCLVKDYFPEPVTVSWNSGALTSGVHTFPAVLQSSGLYSLSSVVTVPSSSLGTQTYICNVNHKPSNTKVDKKVEPKSCDKTHTCPPCPAPELLGGPSVFLFPPKPKDTLMISRTPEVTCVVVDVSHEDPEVKFNWYVDGVEVHNAKTKPREEQYNSTYRVVSVLTVLHRDWLNGKEYKCKVSNKALPAPIEKTISKAKGQPREPQVYTLPPSREEMTKNQVSLTCLVKGFYPSDIAVEWESNGQPENNYKTTPPVLDRDGSFFLYSKLTVKKSRWQQGNVFSCSVMHEALHNHYTQKSLSLSP light: DIVMTQSPATLSLSPGERATLSCTSSQSVYHANWLSWFQQKPGQPPKLLIYWASTLAYGVPSRFSGSGSGTDFTLTISSLQPEDAATYYCAGGYGGGRYAFGQGTKVEIKRTVAAPSVFIFPPSDEQLKSGTASVVCLLNNFYPREAKVQWKVDNALQSGNSQESVTEQDSKDSTYSLSSTLTLSKADYEKHKVYACEVTHQGLSSPVTKSFNRGEC | 1.41 relative to SG1 (=1.00) | 5.68 relative to SG1 (=1.00)
7 | M103205H795-P1487m/M103202L889-SK1 (antibody, human IgG1, kappa) heavy: not shown light: DIVMTQSPATLSLSPGERATLSCTSSQSVYHANWLSWFQQKPGQPPKLLIYWASTLAYGVPSRFSGSGSGTDFTLTISSLQPEDAATYYCAGGYGGGRYAFGQGTKVEIKRTVAAPSVFIFPPSDEQLKSGTASVVCLLNNFYPREAKVQWKVDNALQSGNSQESVTEQDSKDSTYSLSSTLTLSKADYEKHKVYACEVTHQGLSSPVTKSFNRGEC | 1.46 relative to SG1 (=1.00) | 1.23 relative to SG1 (=1.00)
8 | M103205H795-P1488m/M103202L889-SK1 (antibody, human IgG1, kappa) heavy: not shown light: DIVMTQSPATLSLSPGERATLSCTSSQSVYHANWLSWFQQKPGQPPKLLIYWASTLAYGVPSRFSGSGSGTDFTLTISSLQPEDAATYYCAGGYGGGRYAFGQGTKVEIKRTVAAPSVFIFPPSDEQLKSGTASVVCLLNNFYPREAKVQWKVDNALQSGNSQESVTEQDSKDSTYSLSSTLTLSKADYEKHKVYACEVTHQGLSSPVTKSFNRGEC | 1.43 relative to SG1 (=1.00) | 1.45 relative to SG1 (=1.00)

The remaining lines, values ahead:

Row | biacore IC binding [1] | celluar uptake [2] | Binder
9 | 1.1 relative to SG1 (=1.00) | 0.99 relative to SG1 (=1.00) | M103205H795-P1493m/M103202L889-SK1 (antibody, human IgG1, kappa) heavy: not shown light: DIVMTQSPATLSLSPGERATLSCTSSQSVYHANWLSWFQQKPGQPPKLLIYWASTLAYGVPSRFSGSGSGTDFTLTISSLQPEDAATYYCAGGYGGGRYAFGQGTKVEIKRTVAAPSVFIFPPSDEQLKSGTASVVCLLNNFYPREAKVQWKVDNALQSGNSQESVTEQDSKDSTYSLSSTLTLSKADYEKHKVYACEVTHQGLSSPVTKSFNRGEC
10 | 1.14 relative to SG1 (=1.00) | 1.12 relative to SG1 (=1.00) | M103205H795-P1494m/M103202L889-SK1 (antibody, human IgG1, kappa) heavy: not shown light: DIVMTQSPATLSLSPGERATLSCTSSQSVYHANWLSWFQQKPGQPPKLLIYWASTLAYGVPSRFSGSGSGTDFTLTISSLQPEDAATYYCAGGYGGGRYAFGQGTKVEIKRTVAAPSVFIFPPSDEQLKSGTASVVCLLNNFYPREAKVQWKVDNALQSGNSQESVTEQDSKDSTYSLSSTLTLSKADYEKHKVYACEVTHQGLSSPVTKSFNRGEC
11 | 1.05 relative to SG1 (=1.00) | 1.37 relative to SG1 (=1.00) | M103205H795-P1491m/M103202L889-SK1 (antibody, human IgG1, kappa) heavy: not shown light: DIVMTQSPATLSLSPGERATLSCTSSQSVYHANWLSWFQQKPGQPPKLLIYWASTLAYGVPSRFSGSGSGTDFTLTISSLQPEDAATYYCAGGYGGGRYAFGQGTKVEIKRTVAAPSVFIFPPSDEQLKSGTASVVCLLNNFYPREAKVQWKVDNALQSGNSQESVTEQDSKDSTYSLSSTLTLSKADYEKHKVYACEVTHQGLSSPVTKSFNRGEC
12 | 1.28 relative to SG1 (=1.00) | 1.69 relative to SG1 (=1.00) | M103205H795-P1496m/M103202L889-SK1 (antibody, human IgG1, kappa) heavy: not shown light: DIVMTQSPATLSLSPGERATLSCTSSQSVYHANWLSWFQQKPGQPPKLLIYWASTLAYGVPSRFSGSGSGTDFTLTISSLQPEDAATYYCAGGYGGGRYAFGQGTKVEIKRTVAAPSVFIFPPSDEQLKSGTASVVCLLNNFYPREAKVQWKVDNALQSGNSQESVTEQDSKDSTYSLSSTLTLSKADYEKHKVYACEVTHQGLSSPVTKSFNRGEC
13 | 1.24 relative to SG1 (=1.00) | 1.68 relative to SG1 (=1.00) | M103205H795-P1489m/M103202L889-SK1 (antibody, human IgG1, kappa) heavy: not shown light: DIVMTQSPATLSLSPGERATLSCTSSQSVYHANWLSWFQQKPGQPPKLLIYWASTLAYGVPSRFSGSGSGTDFTLTISSLQPEDAATYYCAGGYGGGRYAFGQGTKVEIKRTVAAPSVFIFPPSDEQLKSGTASVVCLLNNFYPREAKVQWKVDNALQSGNSQESVTEQDSKDSTYSLSSTLTLSKADYEKHKVYACEVTHQGLSSPVTKSFNRGEC
14 | 0.88 relative to SG1 (=1.00) | 1.13 relative to SG1 (=1.00) | M103205H795-P1492m/M103202L889-SK1 (antibody, human IgG1, kappa) heavy: not shown light: DIVMTQSPATLSLSPGERATLSCTSSQSVYHANWLSWFQQKPGQPPKLLIYWASTLAYGVPSRFSGSGSGTDFTLTISSLQPEDAATYYCAGGYGGGRYAFGQGTKVEIKRTVAAPSVFIFPPSDEQLKSGTASVVCLLNNFYPREAKVQWKVDNALQSGNSQESVTEQDSKDSTYSLSSTLTLSKADYEKHKVYACEVTHQGLSSPVTKSFNRGEC
15 | 1.3 relative to SG1 (=1.00) | 1.76 relative to SG1 (=1.00) | M103205H795-P1495m/M103202L889-SK1 (antibody, human IgG1, kappa) heavy: not shown light: DIVMTQSPATLSLSPGERATLSCTSSQSVYHANWLSWFQQKPGQPPKLLIYWASTLAYGVPSRFSGSGSGTDFTLTISSLQPEDAATYYCAGGYGGGRYAFGQGTKVEIKRTVAAPSVFIFPPSDEQLKSGTASVVCLLNNFYPREAKVQWKVDNALQSGNSQESVTEQDSKDSTYSLSSTLTLSKADYEKHKVYACEVTHQGLSSPVTKSFNRGEC
16 | 1.28 relative to SG1 (=1.00) | 1.33 relative to SG1 (=1.00) | M103205H795-P1490m/M103202L889-SK1 (antibody, human IgG1, kappa) heavy: not shown light: DIVMTQSPATLSLSPGERATLSCTSSQSVYHANWLSWFQQKPGQPPKLLIYWASTLAYGVPSRFSGSGSGTDFTLTISSLQPEDAATYYCAGGYGGGRYAFGQGTKVEIKRTVAAPSVFIFPPSDEQLKSGTASVVCLLNNFYPREAKVQWKVDNALQSGNSQESVTEQDSKDSTYSLSSTLTLSKADYEKHKVYACEVTHQGLSSPVTKSFNRGEC
